Assay results published in patent US20220056517A1 (OXFORD NANOPORE TECHNOLOGIES, published 2022).
Substitutions are numbered along the chain they refer to. In names and notes the source's numbering stands.

Experiments:
[1] = target: T1, CsgG Y51A/F56Q/N91R/K94Q/R97W/R192D-del(V105-I107) pore (E. coli, UniProt P0AEA2 16-277); experiment: last panel; reader head discrimination from DNA translocation
T1 chain: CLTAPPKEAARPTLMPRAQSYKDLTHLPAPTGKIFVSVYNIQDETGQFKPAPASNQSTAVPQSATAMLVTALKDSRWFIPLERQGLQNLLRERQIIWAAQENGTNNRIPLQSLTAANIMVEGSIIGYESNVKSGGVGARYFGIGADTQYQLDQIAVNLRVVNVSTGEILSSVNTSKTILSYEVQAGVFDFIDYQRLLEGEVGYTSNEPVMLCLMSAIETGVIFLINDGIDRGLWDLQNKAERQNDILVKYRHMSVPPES

[2] = target: T2, CsgG Y51S/N55V/F56Q/N91R/K94Q/R97W-del(V105-I107) pore containing the C terminal strep tag (E. coli, UniProt P0AEA2 16-277); experiment: pore 8; in vitro reconstitution; DNA translocation, signal:noise
T2 construct: also called Y515/N55V/F56Q/N91R/K94Q/R97W-del(V105-I107) (sic); not shown: C-terminal Strep tag
T2 chain: T1 chain with A51S, N55V, D189R

[3] = target: T3, CsgG Y51A/F56A/N91R/K94Q/R97W-del(V105-I107) pore containing the C terminal strep tag (E. coli, UniProt P0AEA2 16-277); experiment: pore 4; in vitro reconstitution; DNA translocation, signal:noise
T3 construct: not shown: C-terminal Strep tag
T3 chain: T1 chain with Q56A, D189R

[4] = target: T4, CsgG Y51A/F56Q/N91R/K94Q/R97W-del(V105-I107) pore containing the C terminal strep tag (E. coli, UniProt P0AEA2 16-277); experiment: pore 1; in vitro reconstitution; DNA translocation, signal:noise
T4 construct: Oligomeric CsgG pore; not shown: C-terminal Strep tag
T4 chain: T1 chain with D189R

[5] = target: T5, CsgG Y51S/N55A/F56Q/N91R/K94Q/R97W-del(V105-I107) pore (E. coli, UniProt P0AEA2 16-277); experiment: pore 7; in vitro reconstitution; DNA translocation, signal:noise
T5 chain: T1 chain with A51S, N55A, D189R

[6] = target: T6, CsgG Y51A/F56V/N91R/K94Q/R97W-del(V105-I107) pore (E. coli, UniProt P0AEA2 16-277); experiment: pore 6; in vitro reconstitution; DNA translocation, signal:noise
T6 chain: T1 chain with Q56V, D189R

[7] = target: T7, CsgG Y51A/N55I/F56Q/N91R/K94Q/R97W-del(V105-I107) pore containing the C terminal strep tag (E. coli, UniProt P0AEA2 16-277); experiment: pore 2; in vitro reconstitution; DNA translocation, signal:noise
T7 construct: also called Y51A/N551/F56Q/N91R/K94Q/R97W-del(V105-I107) (sic); not shown: C-terminal Strep tag
T7 chain: T1 chain with N55I, D189R

[8] = target: T8, CsgG Y51T/N55V/F56Q/N91R/K94Q/R97W-del(V105-I107) pore containing the C terminal strep tag (E. coli, UniProt P0AEA2 16-277); experiment: pore 9; in vitro reconstitution; DNA translocation, signal:noise
T8 construct: not shown: C-terminal Strep tag
T8 chain: T1 chain with A51T, N55V, D189R

Measured: binding result

B1: CsgF-N17S-(1-45) peptide (peptide)
peptide: GTMTFQFRNPNFGGNPSNGAFLLNSAQAQNSYKDPSYNDDFGIET
binds: [1]

B2: CsgF-(1-35) synthetic peptide (peptide)
peptide: GTMTFQFRNPNFGGNPNNGAFLLNSAQAQNSYKDP
notes: also called CsgF (1-35) peptide
not listed: [1]
binds: all other assays above
